# Assay: yeast display, Sf9 membrane polyspecificity reagent, FACS + sequencing; frameworks hold sequencing errors
# Outline: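 Using colony PCR, genes from sorted yeast display clones were amplified, then sequenced on MiSeq at 2 × 250 and filtered by CDR length. The clones had been stained with 10% biotinylated, detergent-solubilized Sf9 membrane reagent for 1 hour at 4 °C and sorted by FACS into low and high (top ~1%) gates on anti-HA and streptavidin fluorescence. Polyreactivity labels come from the gate of origin.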
row,Sequence,polyreactivity (PSR sort gate)
1,QVQLVESGGGLVQAGGSLRLSCAASGSSFDDYTMVWYRQAPGKERELVADSTESGGTTYADSVKGRFTISRDNAKNTVYLQMYSLKPVDTAVYYCNADIYISPLVQVSKGYDYWGQGTQVTVSS,low polyreactivity
2,QVQLVESGGGLVQAGGSLRLSCAASGSSFNSYAMGWYRQAPGKERELVASITRGGSTYYADSVKGRFTISRDNAKTTVYLQMNSLKPEDTAVYYCAARFTQHNYWAMDYRGQGTQVTVSS,high polyreactivity
3,QVQLVESGGGLVQAGGSLRLSCAASGSSFPRYAMAWYTPAPGKERELVAAISSGGSTYYADSVKGRFTISRDNAKNTVYLQMNSLKPEDTAVYYCTARRSRSRYDYWGQVTQVTVSS,high polyreactivity
4,QVQLVESGGGLVQAGGSLRLSCAASGSSFRRNAMGWYRQAPGKERELVAAITRGGGSTYYADSVKGRFTISRDNAKNTVYLQMNSLKPEDNAVYYCAAQISATRETMDYWGQGTQVTVSS,high polyreactivity
5,QVQLVESGGGLVQAGGSLRLSCAASGSSFRVYAMGWYRQAPGKERELVAAISGSGGSTYYADSVKGRFTISRDNAKNTVYLQMNSLKPVDTAVYYCAARSWYTEYYWGQCTQVTVSS,high polyreactivity
6,QVQLVESGGGLVQAGGSLRLSCAASGSSFSYYTMGWYRQAPGKERELVAAITSGGPTNYADSVKGRFTISRDNAKKTVYLQMNSLKPEDTAVYYCAADLYYGWGYYYWGQGTQVTVSS,low polyreactivity
7,QVQLVESGGGLVQAGGSLRLSCAASGSSFTGNAMGWYRQAPGKERELVASINGSSGSTYYADSVKGRFTISRDNAKNTVYLEMNSLKPEDTAVYYCNADTYYVEYTAFDYWGQGTQVTVSS,low polyreactivity
8,QVQLVESGGGLVQAGGSLRLSCAASGSSFVLYAMGWYRQAPGKERELVAAISLSVGSTYYADSVKGRFTISRDNAKNTVYLQMNSLKPEDTAVYDCNARSSIVSYYWYHYWTREFDYWGQGTQVTVSS,low polyreactivity
9,QVQLVESGGGLVQAGGSLRLSCAASGSSFYDNAMGWYRQAPAKERELVAAITWDGDGTYYADSVKGRFTISRDNAKNTVYLQMNSLKPEDTAVYYCAADYYLVGFDYYYWYGYWGQGTQVTVSS,low polyreactivity
10,QVQLVESGGGLVQAGGSLRLSCAASGSSIYVYVMGWYRQAPGKERELVAVIDWRGGSTYYADSVKGRFTISRDNAKNTVYLQMNSLKPEDSSVYYCNKVAQFYYKLPYYKERDWGQGTQVTVSS,low polyreactivity
11,QVQLVESGGGLVQAGGSLRLSCAASGSSKLRLWDGIDRRLGKKGSWLPLFVLVVLRNYADSVKGRFTISRDNAKNTVYLQMNSLKPEDTAVYYCAATPIGSGGWGDYWGQGTQVTVSS,low polyreactivity
12,QVQLVESGGGLVQAGGSLRLSCAASGSSLTRNDMGWHRLAPGKERELVAAISFSGSDTYYADSVKGRFTISRDNAKNTVYLQMNSLKPEDTAVYYCAAEYGGYSKYLFIGRYYWGQGTQVTVSS,low polyreactivity
13,QVQLVESGGGLVQAGGSLRLSCAASGSSSRRMIMGRYRQAPGKERELVAAISGSGGSTYYADSVKGRFTISRDNAKNTVYLQMNSLKPEDTAVYYCAAVLQSCYGYEYWGQGTQVTVSS,high polyreactivity
14,QVQLVESGGGLVQAGGSLRLSCAASGSTFAANAMGWYRQAPGKERELVAAMTSSGGSTYYADSVKGRFTISRDNAKNTVYLQMNSLKPEDTAVYYCNKDIERYVRIYDSWGQGTQVTVSS,low polyreactivity
15,QVQLVESGGGLVQAGGSLRLSCAASGSTFAANAMGWYRQAPGKERELVAVIRRGGSTTYADSVKGRFTISRDNAKNTVYLQMNSLKPEDTAVYYCHARVTLGRPLFTYLVRYEYWGQGTQVTVSS,high polyreactivity
16,QVQLVESGGGLVQAGGSLRLSCAASGSTFADNAMGWDRQAPGKERELVAAISSDGSTNYADSVKGRFTISRDNAKNTVYLQMNSLKPEDTAVYYCNADGVYLGYPVVPPEGDYWGQGTQVTVSS,low polyreactivity
17,QVQLVESGGGLVQAGGSLRLSCAASGSTFADNAMGWYRQAPGKERELVASISSSATSTYYADSVKGRFTISRDNAKNTVYLQMNSLKPEDSAVYYCSKGRPWYRGDFWGQGTQVTVSS,low polyreactivity
18,QVQLVESGGGLVQAGGSLRLSCAASGSTFAGNAMGWYRKAPGKERELVAAITFSGGRTDYADSVKGRFTISRDNAKNTVYLQMNSLNPEDTSVYYCAAPADDTVHYQNYYWGQGTQVTVSS,low polyreactivity
19,QVQLVESGGGLVQAGGSLRLSCAASGSTFAGNAMGWYRQAPGKERELVAAIDSSTGSTYYADSVKGRFTISRDNAKNTVYLQMNSLKPEDTAVYYCAAGYYWQYTSSSAQYAYDYWGQGTQVTVSS,low polyreactivity
20,QVQLVESGGGLVQAGGSLRLSCAASGSTFAGNAMGWYRQAPGKERELVAAIDSSTGSTYYSDSVKGRFTISRDNAKNTVYLQMNSLKPEDTSVYYCNKTSVLVKLDYWGQGTQVTVSS,low polyreactivity
21,QVQLVESGGGLVQAGGSLRLSCAASGSTFAGNAMGWYRQAPGKERELVAAISSGDRTYYADSVKGRFIISRDNAKNTVYLQMNSLKPEDTAVYYCAAGLYLQGPFDYWGQGTQVTVSS,low polyreactivity
22,QVQLVESGGGLVQAGGSLRLSCAASGSTFAGNAMGWYRQAPGTDRELVAAIDSSTGSTYYADSVKGRYTISRDNAKNTVYLHMNSLKPEDTAVYYCNKTSFLVTLDYWGQGTQVTVSS,low polyreactivity

row,Sequence,polyreactivity (PSR sort gate)
1,QVQLVESGGGLVQAGGSLRLSCAASGSTFAGYAMGWYRQAPGKERELVAAISRGGRTYYADSVKGRFTISRDNAKNTVYLQMNSLKPEDTAVYYCAKYSAWYTYTYDYWGQGTQVTVSS,high polyreactivity
2,QVQLVESGGGLVQAGGSLRLSCAASGSTFAGYVMGWSRQAPGKERELVAAISRSGGSTYYADSVKGRFTISRDNAKNTVYLQMNSLKPEDTAVYYCNARYNTQRYRFLVQGDYWGQGTQVTVSS,high polyreactivity
3,QVQLVESGGGLVQAGGSLRLSCAASGSTFAGYVMGWYRQAPGKERELVAGISYRGGRTYYADSVKGRFTISRDNAKNTVYLQMNSLKPEDTAVYYCAAENAVTGTDGEYYYWGQGTQVTVSS,high polyreactivity
4,QVQLVESGGGLVQAGGSLRLSCAASGSTFAGYVMGWYRQAPGKERELVASKSWSGGSTYYADSVKGRFTISRDNAKNTVNLQMNSLKPEETAVYYSNTRRYERTDSAYPDHDYPGYYWGQATQVTVSS,low polyreactivity
5,QVQLVESGGGLVQAGGSLRLSCAASGSTFAHKAMGWYRQAPGKEGEFVAGISTNGGSTYYADSVKGRFTISRDNAKNTVYLQMNSLKPEDTAVYYCAAVNYYDQYGDYYWGQGTQVTVSS,low polyreactivity
6,QVQLVESGGGLVQAGGSLRLSCAASGSTFAIYAMGWDRGAPGKEREVVAAISWRTGSTYYADSVKGRFTISRDNAKNTVYLQMNSLKPEDTAVYYCAAEFWFFAGWAYEYWGHGTQVTVSS,high polyreactivity
7,QVQLVESGGGLVQAGGSLRLSCAASGSTFAIYAMGWYRKSPGKERELVASISGGSTNYADSVKGRFTISRDNAKNTVYLQMNSLKPEDTSVYYCAARGALHHWYRFDYWGQGTQVTLSS,low polyreactivity
8,QVQLVESGGGLVQAGGSLRLSCAASGSTFAIYPMGWYRPAPGKERELVAAITRSGGNTYYADSVKGRFTISRDNAKNTVYLQMNSLKPEDTAVYYCNAETYYWSAYAQYEYWGQGTQVTVSS,high polyreactivity
9,QVQLVESGGGLVQAGGSLRLSCAASGSTFAIYPMGWYRQAPGKETALVAAITRSGGNTYYADSVKGRFTISRDNAKNTVYLQMNSLKPEDTAVYYCNAETYYWSAYAQYDYWGQGTQVTVSS,high polyreactivity
10,QVQLVESGGGLVQAGGSLRLSCAASGSTFAKYAMGWYRQAPGKERELVAAISLSGGSTYYADSVKGRFTISRDNAKNTVYLQMNSLKPEDTAVYYCNTPPSRYVRYGIYRYDYWGQGTQVTVSS,high polyreactivity
11,QVQLVESGGGLVQAGGSLRLSCAASGSTFALYPMGCYRQAPGKERELVAGITIDGSTNYADSVKGRFTISRDNAKNTVYLQMNSLKPEDTAVYYCNADSYKYPLLKYRSDYWGQGTQVTVSS,low polyreactivity
12,QVQLVESGGGLVQAGGSLRLSCAASGSTFANNDMGWYRQAPGIEREMVADIRSGGNTNYADSVKGRFTISRDNAKNTVVLQMHSVKPEDTAVYYCATDGYRIDVYQPDYRYDYWGQGTQVTVSS,low polyreactivity
13,QVQLVESGGGLVQAGGSLRLSCAASGSTFANYAMGWYRQAPGKERELVAAISRGGNTYYADSVKGRFTISRDNAKNTVYLQMNSLKPEDTAVYYCAARAPRFSRSSQPGDYWGQGTQVTVSS,high polyreactivity
14,QVQLVESGGGLVQAGGSLRLSCAASGSTFANYAMGWYRQAPGKERELVAVISWGGGSTYYADSVKGRFTISRDNAKNTVYLQMNSLKPEDTAVYYCAAVYDEYQTTHEYDYWGQGTQVNVSS,low polyreactivity
15,QVQLVESGGGLVQAGGSLRLSCAASGSTFAPNAMGWYRQAPGKERELVASIRRGGSTHYADSVKGRFTISRDNAKNTVYVQMNSLKPEDTAVYYCAKDVWRHYLNLYDYWGQGTQVTVSS,low polyreactivity
16,QVQLVESGGGLVQAGGSLRLSCAASGSTFAPNTMGWYRQAPGKERELVARITTSDGSTTYADSVKGRFTISRDYAKNTVFFQMNILNPEDTAVYYCARDNTFCTWPSSLYDYWGQGTQVTVSS,low polyreactivity
17,QVQLVESGGGLVQAGGSLRLSCAASGSTFAPYAMGWYRQAPGKERELVAVITWSGGRTYYADSVKGRFTISRDNAKNTVYLQMNSLKPEDTAVYYCNDVPLLQGFNYWGQGTQGTVSS,high polyreactivity
18,QVQLVESGGGLVQAGGSLRLSCAASGSTFAPYAMGWYRQAPGTERELVAALTTGGSTNYADYVKGRFTISRDNATNTVYLQMNSLKPEDTAVYYCNAEYGGGVDGTYKYYSEYDYWGQGTQVTVSS,low polyreactivity
19,QVQLVESGGGLVQAGGSLRLSCAASGSTFAQNVMGWYRQAPGKERELVAAITSSGSTNYADSVKGRFTISRDNAKNTVYLQMNILKPEDTAVFYCAKDVLAPYSRHDYWGQGTQVTVSS,low polyreactivity
20,QVQLVESGGGLVQAGGSLRLSCAASGSTFAQYAMGWYRQAPAKERELVAVISKRGGRTYYADSVKGRFTISRDNGKNTVYLQMNSLKPEDTAGYYCAADSGGPGYAMDYWGQGTQVTVSS,high polyreactivity
21,QVQLVESGGGLVQAGGSLRLSCAASGSTFARYAMGWYRQAPGKERELVAAISITGSTYYADSVKGRFTISRDNAKNTVYLQMNSLNPEDTAVYYCNVKSKYRYGYWGQGTQVTVSS,high polyreactivity

# Source: the nanobody polyreactivity screen of Harvey et al. (2022)
